Earlier results in publication PMC3417102.

Tests used:
[1] = target: plasminogen (Homo sapiens) (UniProt P00747)
[2] = target: tissue-type plasminogen activator (Homo sapiens) (UniProt P00750)
[3] = target: Glu-plasminogen (Homo sapiens) (UniProt P00747)

Sequence of UniProt P00750 (P00750 311-562): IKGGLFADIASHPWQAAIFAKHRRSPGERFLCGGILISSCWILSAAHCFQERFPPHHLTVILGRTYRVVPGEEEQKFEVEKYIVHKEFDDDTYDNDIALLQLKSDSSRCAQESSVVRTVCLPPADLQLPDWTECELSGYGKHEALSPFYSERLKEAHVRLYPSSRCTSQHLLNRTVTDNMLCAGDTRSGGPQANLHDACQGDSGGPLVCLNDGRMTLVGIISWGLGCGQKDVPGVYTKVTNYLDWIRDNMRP

Kd [1]	Kd [2]	Kd [3]	Substance
0.114 µM	0.03 µM		Annexin A2 (from UniProt P07355)
		0.37 µM	beta2-glycoprotein I (nicked) (from UniProt P02749)
